The text below walks through data of patent US20100310573A1 (Kyowa Kirin, published 2010).

Bounds are passed on as bounds.

The target in assay [1] is T1, recombinant human CD4 (catalogue number: 514-CD/CF, manufactured by R&D Systems) (human, UniProt P01730 26-390).
T1 construct: Bought protein (R&D Systems); also called recombinant CD4
The assay is described as follows: SPR, Biacore T100; antibody captured on anti-mouse IgG chip, recombinant human CD4 flowed; 1:1 binding model. How it is done:
In order to kinetically analyze the binding activity of anti-CD4 rat monoclonal antibodies KM4065 to KM4069 and commercially available anti-human CD4 mouse antibody for recombinant human CD4, the binding activity was measured by surface plasmon resonance method (SPR). All of the following manipulations were carried out using the Biacore T100 (manufactured by GE Healthcare Bio-Sciences). The anti-mouse IgG antibody was immobilized on a CM5 sensor chip (manufactured by GE Healthcare Bio-Sciences) by an amine coupling method using a Mouse Antibody Capture Kit (manufactured by GE Healthcare Bio-Sciences) in accordance with the protocols attached thereto. Anti-CD4 rat monoclonal antibodies KM4065 to KM4069, Leu-3a (BD Biosciences), OKT4 (BioLegend) and 13B8.2 (Beckman Coulter) were added to be captured on the anti-mouse IgG antibody-immobilized chip to give 100 RU (resonance unit), respectively. Thereafter, the recombinant human CD4 (manufactured by R&D) diluted from 2500 ng/mL in five steps was allowed to run at a flow rate of 30 μL/min onto the chip, and the sensorgram corresponding to each concentration was obtained. The analysis was carried out in the 1:1 binding model using an analysis software attached to the apparatus, thereby calculating an association rate constant ka and a dissociation rate constant kd of individual antibodies for the human CD4.
As a result, an association rate constant (hereinafter, referred to as “ka”), a dissociation rate constant (hereinafter, referred to as “kd”) and a dissociation constant KD (kd/ka) of individual antibodies thus obtained are given in Table 2.
A general note: SPR reads the build-up and loss of mass on a sensor chip optically.

For assay [2], the target named is T1, recombinant human CD4 (catalogue …). The assay is described as follows: SPR, Biacore T100; antibody captured on anti-human IgG chip, recombinant human CD4 flowed; 1:1 binding model. How it is done:
(§1) In order to kinetically analyze the binding activity of anti-CD4 chimeric antibodies KM4045 to KM4049, 6G5-1 and 6G5-P to recombinant human CD4, the binding activity was measured by surface plasmon resonance method (SPR). All of the following manipulations were carried out using a Biacore T100 (manufactured by GE Healthcare Bio-Sciences). The anti-human IgG antibody was immobilized on a CM5 sensor chip (manufactured by GE Healthcare Bio-Sciences) by an amine coupling method using a Human Antibody Capture Kit (manufactured by GE Healthcare Bio-Sciences) in accordance with the protocols attached thereto. An assay sample (anti-CD4 chimeric antibodies KM4045 to KM4049) was added to be captured on the anti-human IgG antibody-immobilized chip to give 100 RU (resonance unit). Thereafter, the recombinant human CD4 (manufactured by R&D) diluted from 2500 ng/mL in five steps was allowed to run at a flow rate of 30 μL/min onto the chip, and the sensorgram corresponding to each concentration was obtained. The analysis was carried out in the 1:1 binding model using an analysis software attached to the apparatus, Biacore T100 Evaluation software (manufactured by Biacore), thereby calculating an association rate constant ka and a dissociation rate constant kd of respective antibodies for human CD4.
As a result, an association rate constant ka, a dissociation rate constant kd, and a dissociation constant KD (kd/ka) of individual antibodies thus obtained are given in Table 5.

Assay [3] shares this target. The assay is described as follows: Biacore T100.
The target is the same in assay [4]. The assay is described as follows: SPR, Biacore T100; summary sentence to Table 6.
The target is the same in assay [5]. The assay is described as follows: SPR, Biacore T100; antibody captured on anti-human IgG chip, recombinant human CD4 flowed; 1:1 binding model. How it is done: as §1
The measurement of a binding activity was carried out according to the method described in Example 7(2). The association rate constant ka, the dissociation rate constant kd and the dissociation constant KD (kd/ka) of respective antibodies thus obtained are shown in Table 6.
This is another data set of the same source.

B1: anti-CD4 rat monoclonal antibody KM4067 (antibody, V domains shown)
VH: QVKLLQSGAALVKPGASVKMSCKASGYTFTDYWVHWVKQSHGKSLEWIGEIYPNNNTTNFNEKFKGKATLTVDKFTSTAYMELSRLTSEDSAIYYCTRGTVYYGLGYFDHWGQGVMVTVSS
VL: DIRMTQSPASLSASLGETVNIECLASEDVYSDLAWYQQKPGKSPQLLIYNANNLQSGVPSRFSGSGSGTRYSLKINSLQSEDVATYFCQQYNNYPPYTFGAGTKLELK
notes: Rat hybridoma IgG with a kappa light chain
B1: in assay [1], the Kd came to 0.541 nM, the koff came out at 0.000473 s⁻¹ and the kon worked out at 875000 M⁻¹ s⁻¹.

B2: anti-CD4 chimeric antibody KM4047 (antibody, V domains shown)
VH: QVKLLQSGAALVKPGASVKMSCKASGYTFTDYWVHWVKQSHGKSLEWIGEIYPNNNTTNFNEKFKGKATLTVDKFTSTAYMELSRLTSEDSAIYYCTRGTVYYGLGYFDHWGQGVMVTVSS
VL: DIRMTQSPASLSASLGETVNIECLASEDVYSDLAWYQQKPGKSPQLLIYNANNLQSGVPSRFSGSGSGTRYSLKINSLQSEDVATYFCQQYNNYPPYTFGAGTKLELK
notes: Variable regions of rat KM4067 joined to the '113F type' human IgG1/IgG3 heavy chain constant region (US2007/0148165) and a human kappa constant region; Expressed in FUT8 knockout CHO cells (0% fucose)
On to B2, for which, in assay [2], the Kd worked out at 0.369 nM, the koff was determined as 0.000488 s⁻¹ and the kon amounted to 1.33e+06 M⁻¹ s⁻¹.

B3: anti-CD4 rat monoclonal antibody KM4065 (antibody, V domains shown)
VH: EVQLVESGGGLVQPGRSMKLSCAASGFTFSNYGMAWVRQAPTKGLEWVATISYDGSITYYRDSVKGRFTISRDHAKSTLYLQMNSLRSEDTATYYCTREEQYSSWYFDFWGPGIMVTVSS
VL: DIVLTQSPALAVSLGQRATISCRASQSVSISSHDLMQWYQQKPGQQPKLLIYDAFNLASGIPVRFSGSGSGTDFTLTIDPVQADDIATYYCQQSKDDPYTFGAGTKLELK
notes: as for B1
Regarding B3, in assay [1], the Kd amounted to 0.00426 nM, the koff was determined as 1.52e-06 s⁻¹ and the kon worked out at 357000 M⁻¹ s⁻¹.

B4: anti-CD4 humanized antibody HV3LV0 (antibody, V domains shown)
VH: EVQLVESGGGLVQPGRSLRLSCAASGFTFSNYGMAWVRQAPGKGLEWVATISYDGSITYYRDSVKGRFTISRDNSKNTLYLQMNSLRAEDTATYYCTREEQYSSWYFDFWGQGILVTVSS
VL: DIQLTQSPSSLSASVGDRVTITCRASQSVSISSHDLMQWYQQKPGKAPKLLIYDAFNLASGVPSRFSGSGSGTDFTLTISSLQPEDFATYYCQQSKDDPYTFGQGTKLEIK
notes: Expressed from the humanized antibody expression vector pKANTEX93
As to B4, the “binding activity relative to the anti-CD4 chimeric antibody KM4045” value in assay [3] was 0.5 fold of KM4045. The Kd in assay [4] is not above 0.1 nM. In assay [5], the Kd was less than 0.00752 nM, the koff was less than 1e-05 s⁻¹ and the kon amounted to 1.33e+06 M⁻¹ s⁻¹.

B5: anti-CD4 humanized antibody HV0LV0 (antibody, V domains shown)
VH: EVQLVESGGGLVQPGRSLRLSCAASGFTFSNYGMAWVRQAPGKGLEWVATISYDGSITYYRDSVKGRFTISRDNSKNTLYLQMNSLRAEDTAVYYCAREEQYSSWYFDFWGQGTLVTVSS
VL: DIQLTQSPSSLSASVGDRVTITCRASQSVSISSHDLMQWYQQKPGKAPKLLIYDAFNLASGVPSRFSGSGSGTDFTLTISSLQPEDFATYYCQQSKDDPYTFGQGTKLEIK
notes: CDRs of KM4065 grafted into human framework regions; Expressed from the humanized antibody expression vector pKANTEX93
Turning to B5, the Kd in assay [4] was not above 0.1 nM. For the same molecule, in assay [5], the Kd worked out at 0.0195 nM, the koff was 2.86e-05 s⁻¹ and the kon was 1.47e+06 M⁻¹ s⁻¹.

B6: anti-CD4 rat monoclonal antibody KM4066 (antibody, V domains shown)
VH: EVQLEESGGGLVQPGRSLKLSCLASGFTFSNYGMNWIRQAPGKGLEWVASISGSSTYIYYADTVKGRFTISRENAENTLYLQMTSLRSEDTALYYCAREGSSTDRYYEVSFAYWGQGTLVTVSS
VL: DVVLTQTPVSLSVTLGDQASISCRSSQSLEYSDGYTYLEWYLQKPGQSPQVLIYGVSNRFSGVPDRFIGSGSGTDFTLKISRVEPEDLGVYYCFQATHDPYTFGAGTRLELK
notes: as for B1
As to B6, in assay [1], the Kd was found to be 0.0882 nM, the koff is 0.000118 s⁻¹ and the kon amounted to 1.34e+06 M⁻¹ s⁻¹.

B7: anti-CD4 chimeric antibody KM4046 (antibody, V domains shown)
VH: EVQLEESGGGLVQPGRSLKLSCLASGFTFSNYGMNWIRQAPGKGLEWVASISGSSTYIYYADTVKGRFTISRENAENTLYLQMTSLRSEDTALYYCAREGSSTDRYYEVSFAYWGQGTLVTVSS
VL: DVVLTQTPVSLSVTLGDQASISCRSSQSLEYSDGYTYLEWYLQKPGQSPQVLIYGVSNRFSGVPDRFIGSGSGTDFTLKISRVEPEDLGVYYCFQATHDPYTFGAGTRLELK
notes: Variable regions of rat KM4066 joined to the '113F type' human IgG1/IgG3 heavy chain constant region (US2007/0148165) and a human kappa constant region; Expressed in FUT8 knockout CHO cells (0% fucose)
Consider B7, for which, in assay [2], the Kd turned out to be 0.0614 nM, the koff came out at 5.12e-05 s⁻¹ and the kon turned out to be 834000 M⁻¹ s⁻¹.

B8: anti-CD4 rat monoclonal antibody KM4068 (antibody, V domains shown)
VH: QVQLKESGPGLVQPSQTLSLTCTVSGLSLTSNSVSWIRQPPGKGLEWMGIIWSNGDTDYNSAIKSRLSISRDTSKSQVFLKMNSLQTEDTAMYFCANPYYGYNFPFDYWGQGVMVTVSS
VL: DIQMTQSPASLSASLEEIVTITCKASQGIDNYLSWYQQKPGKSPQLLIYDATSLADGVPSRFSGSRSGTQYSLKISRPQVDDSGIYYCLQSYSTPFTFGSGTKLEIK
notes: as for B1
With B8, in assay [1], the Kd came out at 1.1 nM, the koff was 0.00204 s⁻¹ and the kon amounted to 1.85e+06 M⁻¹ s⁻¹.

B9: anti-CD4 chimeric antibody KM4048 (antibody, V domains shown)
VH: QVQLKESGPGLVQPSQTLSLTCTVSGLSLTSNSVSWIRQPPGKGLEWMGIIWSNGDTDYNSAIKSRLSISRDTSKSQVFLKMNSLQTEDTAMYFCANPYYGYNFPFDYWGQGVMVTVSS
VL: DIQMTQSPASLSASLEEIVTITCKASQGIDNYLSWYQQKPGKSPQLLIYDATSLADGVPSRFSGSRSGTQYSLKISRPQVDDSGIYYCLQSYSTPFTFGSGTKLEIK
notes: Variable regions of rat KM4068 joined to the '113F type' human IgG1/IgG3 heavy chain constant region (US2007/0148165) and a human kappa constant region; Expressed in FUT8 knockout CHO cells (0% fucose)
As for B9, in assay [2], the Kd came to 0.651 nM, the koff came out at 0.00381 s⁻¹ and the kon amounted to 5.85e+06 M⁻¹ s⁻¹.

B10: anti-CD4 rat monoclonal antibody KM4069 (antibody, V domains shown)
VH: QVQLKESGPGLVQPSQTLSLTCTVSGSSLTSNSVSWIRQPPGKGLEWMGVIWSNGDADYNSAIKSRLSISRDTSKSQVFLKMNSLQTEDTAMYFCASPYYGYYFPFDYWGQGVMVTVSS
VL: DIQMTQSPASLSASLEEIVTITCKASQAIDAYLSWYQQKPGKSPQLLIYDATSLADGVPSRFSGSRSGTQYSLKISRPQVDDSGIYYCLQSYSTPFTFGSGTKLEIK
notes: as for B1
Consider B10, for which, in assay [1], the Kd is 0.482 nM, the koff stood at 0.000584 s⁻¹ and the kon was 1.21e+06 M⁻¹ s⁻¹.

B11: anti-CD4 chimeric antibody KM4049 (antibody, V domains shown)
VH: QVQLKESGPGLVQPSQTLSLTCTVSGSSLTSNSVSWIRQPPGKGLEWMGVIWSNGDADYNSAIKSRLSISRDTSKSQVFLKMNSLQTEDTAMYFCASPYYGYYFPFDYWGQGVMVTVSS
VL: DIQMTQSPASLSASLEEIVTITCKASQAIDAYLSWYQQKPGKSPQLLIYDATSLADGVPSRFSGSRSGTQYSLKISRPQVDDSGIYYCLQSYSTPFTFGSGTKLEIK
notes: Variable regions of rat KM4069 joined to the '113F type' human IgG1/IgG3 heavy chain constant region (US2007/0148165) and a human kappa constant region; Expressed in FUT8 knockout CHO cells (0% fucose)
B11: in assay [2], the Kd is 0.2 nM, the koff is 0.00116 s⁻¹ and the kon was 5.77e+06 M⁻¹ s⁻¹.

B12: anti-CD4 human antibody 6G5-1 (antibody, V domains shown)
VH: QVQLQQWGAGLLKPSETLSLTCAVYGGSFSGYYWSWIRQPPGKGLEWIGEINHSGSTNYNPSLKSRVTISVDTSKNQFSLKLSSVTAADTAVYYCARVINWFDPWGQGTLVTVSS
VL: DIQMTQSPSSVSASVGDRVTITCRASQDISSWLAWYQHKPGKAPKLLIYAASSLQSGVPSRFSGSGSGTDFTLTISSLQPEDFATYYCQQANSFPYTFGQGTKLEIKR
B12: in assay [2], the Kd worked out at 1.46 nM, the koff turned out to be 0.000872 s⁻¹ and the kon came to 595000 M⁻¹ s⁻¹. Moreover, in assay [5], the Kd was determined as 1.54 nM, the koff was 0.000824 s⁻¹ and the kon stood at 534000 M⁻¹ s⁻¹.

A word on the Kd: it is the concentration at which binding is half-saturated. In general, koff refers to the rate constant with which the complex falls apart. As usually defined, the kon is the second-order rate constant of association.
